B1: MNAT1 (parent)
chain: LEEALYEYQPLQIETYGPHVPELE

Variants of: B1
Test: protein stability index of a GFP-peptide fusion (GPS, HEK-293T) (PSI 1-6); higher = more stable
Details: c terminus: a fixed tail appended
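Further: lentivirally expressed fusions sorted by FACS into six bins by GFP to DsRed ratio, PSI derived from sequencing read proportions per bin multiplied by bin number.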

Variant	protein stability index
LEEALYEYQPLQIETYGPHVNELE [P21N]	2.47
LEEALYEYQPLQIETYGPHVVELE [P21V]	2.19
LEEALYEYQPLQIETYGPHVEELE [P21E]	3.67
LEEALYEYQPLQIETYGPHVRELE [P21R]	2.96
LEEALYEYQPLQIETYGPHVYELE [P21Y]	1.75
LEEALYEYQPLQIETYGPHVSELE [P21S]	2.41
LEEALYEYQPLQIETYGPHVWELE [P21W]	1.75
LEEALYEYQPLQIETYGPHVMELE [P21M]	2.53
LEEALYEYQPLQIETYGPHVDELE [P21D]	3.3
LEEALYEYQPLQIETYGPHVLELE [P21L]	2.79
LEEALYEYQPLQIETYGPHVCELE [P21C]	3.78
LEEALYEYQPLQIETYGPHVAELE [P21A]	2.92
LEEALYEYQPLQIETYGPHVGELE [P21G]	1.97
LEEALYEYQPLQIETYGPHVIELE [P21I]	2.2
LEEALYEYQPLQIETYGPHVQELE [P21Q]	3.42
LEEALYEYQPLQIETYGPHVTELE [P21T]	2.56
LEEALYEYQPLQIETYGPHVKELE [P21K]	3.01
LEEALYEYQPLQIETYGPHVHELE [P21H]	2.58
LEEALYEYQPLQIETYGPHVFELE [P21F]	1.44
LEEALYEYQPLQIETYCPHVPELE [G17C]	1.98
LEEALYEYQPLQIETYLPHVPELE [G17L]	1.85
LEEALYEYQPLQIETYFPHVPELE [G17F]	2.35
LEEALYEYQPLQIETYPPHVPELE [G17P]	2.69
LEEALYEYQPLQIETYIPHVPELE [G17I]	2.13

Variant	protein stability index
LEEALYEYQPLQIETYTPHVPELE [G17T]	2.5
LEEALYEYQPLQIETYDPHVPELE [G17D]	2.21
LEEALYEYQPLQIETYWPHVPELE [G17W]	1.74
LEEALYEYQPLQIETYQPHVPELE [G17Q]	2.53
LEEALYEYQPLQIETYKPHVPELE [G17K]	2.88
LEEALYEYQPLQIETYVPHVPELE [G17V]	2.12
LEEALYEYQPLQIETYNPHVPELE [G17N]	2.99
LEEALYEYQPLQIETYSPHVPELE [G17S]	2.27
LEEALYEYQPLQIETYHPHVPELE [G17H]	3.14
LEEALYEYQPLQIETYAPHVPELE [G17A]	2.35
LEEALYEYQPLQIETYEPHVPELE [G17E]	3.14
LEEALYEYQPLQIETYYPHVPELE [G17Y]	1.59
LEEALYEYQPLQIETYMPHVPELE [G17M]	1.75
LEEALYEYQPLQIETYGPHVPETE [L23T]	2.6
LEEALYEYQPLQIETYGPHVPEAE [L23A]	3.56
LEEALYEYQPLQIETYGPHVPEHE [L23H]	3.29
LEEALYEYQPLQIETYGPHVPERE [L23R]	3.99
LEEALYEYQPLQIETYGPHVPEPE [L23P]	3.19
LEEALYEYQPLQIETYGPHVPEDE [L23D]	4.02
LEEALYEYQPLQIETYGPHVPECE [L23C]	3.16
LEEALYEYQPLQIETYGPHVPEWE [L23W]	2.84
LEEALYEYQPLQIETYGPHVPEME [L23M]	3.2
LEEALYEYQPLQIETYGPHVPEVE [L23V]	2.81
LEEALYEYQPLQIETYGPHVPEKE [L23K]	3.59

Variant	protein stability index
LEEALYEYQPLQIETYGPHVPEGE [L23G]	3.55
LEEALYEYQPLQIETYGPHVPEFE [L23F]	2.87
LEEALYEYQPLQIETYGPHVPEQE [L23Q]	2.98
LEEALYEYQPLQIETYGPHVPEIE [L23I]	2.53
LEEALYEYQPLQIETYGPHVPENE [L23N]	3.34
LEEALYEYQPLQIETYGPHVPESE [L23S]	3.48
LEEALYEYQPLQIETYGPHVPEEE [L23E]	4.12
LEEALYEYQPLQIETYGPHVPEYE [L23Y]	2.89
LEEALYEYQPLQIETTGPHVPELE [Y16T]	4.09
LEEALYEYQPLQIETCGPHVPELE [Y16C]	3.84
LEEALYEYQPLQIETDGPHVPELE [Y16D]	5.37
LEEALYEYQPLQIETAGPHVPELE [Y16A]	4.54
LEEALYEYQPLQIETWGPHVPELE [Y16W]	2.49
LEEALYEYQPLQIETHGPHVPELE [Y16H]	3.15
LEEALYEYQPLQIETVGPHVPELE [Y16V]	3.19
LEEALYEYQPLQIETLGPHVPELE [Y16L]	4.15
LEEALYEYQPLQIETEGPHVPELE [Y16E]	4.13
LEEALYEYQPLQIETQGPHVPELE [Y16Q]	4.33
LEEALYEYQPLQIETPGPHVPELE [Y16P]	4.94
LEEALYEYQPLQIETGGPHVPELE [Y16G]	4.52
LEEALYEYQPLQIETNGPHVPELE [Y16N]	4.7
LEEALYEYQPLQIETKGPHVPELE [Y16K]	4.34
LEEALYEYQPLQIETFGPHVPELE [Y16F]	3.49
LEEALYEYQPLQIETRGPHVPELE [Y16R]	3.19

Variant	protein stability index
LEEALYEYQPLQIETMGPHVPELE [Y16M]	3.79
LEEALYEYQPLQIETIGPHVPELE [Y16I]	3.61
LEEALYEYQPLQIETSGPHVPELE [Y16S]	4.27
LEEALYEYQPLQIETYGDHVPELE [P18D]	2.8
LEEALYEYQPLQIETYGHHVPELE [P18H]	2.81
LEEALYEYQPLQIETYGIHVPELE [P18I]	2.04
LEEALYEYQPLQIETYGTHVPELE [P18T]	3.02
LEEALYEYQPLQIETYGVHVPELE [P18V]	2.39
LEEALYEYQPLQIETYGRHVPELE [P18R]	3.78
LEEALYEYQPLQIETYGQHVPELE [P18Q]	3.3
LEEALYEYQPLQIETYGLHVPELE [P18L]	2.16
LEEALYEYQPLQIETYGCHVPELE [P18C]	1.91
LEEALYEYQPLQIETYGAHVPELE [P18A]	2.74
LEEALYEYQPLQIETYGGHVPELE [P18G]	2.96
LEEALYEYQPLQIETYGSHVPELE [P18S]	2.6
LEEALYEYQPLQIETYGEHVPELE [P18E]	2.15
LEEALYEYQPLQIETYGNHVPELE [P18N]	3.31
LEEALYEYQPLQIETYGMHVPELE [P18M]	2.01
LEEALYEYQPLQIETYGFHVPELE [P18F]	2.17
LEEALYEYQPLQIETYGYHVPELE [P18Y]	2.97
LEEALYEYQPLQIETYGKHVPELE [P18K]	4.11
LEEALYEYQPLQIETYGWHVPELE [P18W]	1.18
LEEALYEYQPLQIEDYGPHVPELE [T15D]	4.73
LEEALYEYQPLQIEPYGPHVPELE [T15P]	4.55

Variant	protein stability index
LEEALYEYQPLQIENYGPHVPELE [T15N]	4.13
LEEALYEYQPLQIELYGPHVPELE [T15L]	1.82
LEEALYEYQPLQIEYYGPHVPELE [T15Y]	2.01
LEEALYEYQPLQIEKYGPHVPELE [T15K]	4.14
LEEALYEYQPLQIEIYGPHVPELE [T15I]	1.61
LEEALYEYQPLQIEHYGPHVPELE [T15H]	3.91
LEEALYEYQPLQIECYGPHVPELE [T15C]	2.18
LEEALYEYQPLQIEAYGPHVPELE [T15A]	1.99
LEEALYEYQPLQIESYGPHVPELE [T15S]	3.54
LEEALYEYQPLQIEMYGPHVPELE [T15M]	2.32
LEEALYEYQPLQIEQYGPHVPELE [T15Q]	4.09
LEEALYEYQPLQIEEYGPHVPELE [T15E]	4.43
LEEALYEYQPLQIERYGPHVPELE [T15R]	4.41
LEEALYEYQPLQIEFYGPHVPELE [T15F]	1.75
LEEALYEYQPLQIEWYGPHVPELE [T15W]	2.2
LEEALYEYQPLQIEGYGPHVPELE [T15G]	4.13
LEEALYEYQPLQIEVYGPHVPELE [T15V]	1.7
LEEALYEYQPLQIETYGPHVPELD [E24D]	3.39
LEEALYEYQPLQIETYGPHVPELM [E24M]	2.14
LEEALYEYQPLQIETYGPHVPELC [E24C]	1.76
LEEALYEYQPLQIETYGPHVPELF [E24F]	1.91
LEEALYEYQPLQIETYGPHVPELL [E24L]	2.19
LEEALYEYQPLQIETYGPHVPELH [E24H]	2.25
LEEALYEYQPLQIETYGPHVPELK [E24K]	2.53

Variant	protein stability index
LEEALYEYQPLQIETYGPHVPELI [E24I]	1.88
LEEALYEYQPLQIETYGPHVPELG [E24G]	2.03
LEEALYEYQPLQIETYGPHVPELA [E24A]	2.84
LEEALYEYQPLQIETYGPHVPDLE [E22D]	2.46
LEEALYEYQPLQIETYGPHVPWLE [E22W]	1.54
LEEALYEYQPLQIETYGPHVPSLE [E22S]	2.4
LEEALYEYQPLQIETYGPHVPTLE [E22T]	2.56
LEEALYEYQPLQIETYGPHVPHLE [E22H]	2.2
LEEALYEYQPLQIETYGPHVPFLE [E22F]	1.97
LEEALYEYQPLQIETYGPHVPGLE [E22G]	2.43
LEEALYEYQPLQIETYGPHVPQLE [E22Q]	2.54
LEEALYEYQPLQIETYGPHVPCLE [E22C]	3.71
LEEALYEYQPLQIETYGPHVPRLE [E22R]	2.35
LEEALYEYQPLQIETYGPHVPVLE [E22V]	2.56
LEEALYEYQPLQIETYGPHVPILE [E22I]	1.84
LEEALYEYQPLQIETYGPHVPLLE [E22L]	2.35
LEEALYEYQPLQIETYGPHVPNLE [E22N]	2.31
LEEALYEYQPLQIETYGPHVPKLE [E22K]	2.31
LEEALYEYQPLQIETYGPHVPPLE [E22P]	2.28
LEEALYEYQPLQIETYGPHVPALE [E22A]	2.47
LEEALYEYQPLQIETYGPHVPMLE [E22M]	2.35
LEEALYEYQPLQIETYGPHVPYLE [E22Y]	2.49
LEEALYEYQPLQIQTYGPHVPELE [E14Q]	2.19
LEEALYEYQPLQIRTYGPHVPELE [E14R]	1.93

Variant	protein stability index
LEEALYEYQPLQITTYGPHVPELE [E14T]	2.32
LEEALYEYQPLQIVTYGPHVPELE [E14V]	1.82
LEEALYEYQPLQIYTYGPHVPELE [E14Y]	1.87
LEEALYEYQPLQIWTYGPHVPELE [E14W]	1.6
LEEALYEYQPLQISTYGPHVPELE [E14S]	2.25
LEEALYEYQPLQIPTYGPHVPELE [E14P]	4.22
LEEALYEYQPLQIETYGPKVPELE [H19K]	2.8
LEEALYEYQPLQIETYGPIVPELE [H19I]	1.57
LEEALYEYQPLQIETYGPEVPELE [H19E]	3.27
LEEALYEYQPLQIETYGPYVPELE [H19Y]	2.62
LEEALYEYQPLQIETYGPAVPELE [H19A]	2.89
LEEALYEYQPLQIETYGPRVPELE [H19R]	3.99
LEEALYEYQPLQIETYGPCVPELE [H19C]	3.3
LEEALYEYQPLQIETYGPDVPELE [H19D]	2.76
LEEALYEYQPLQIETYGPLVPELE [H19L]	2.33
LEEALYEYQPLQIETYGPMVPELE [H19M]	2.09
LEEALYEYQPLQIETYGPFVPELE [H19F]	2.11
LEEALYEYQPLQIETYGPSVPELE [H19S]	2.69
LEEALYEYQPLQIETYGPGVPELE [H19G]	2.26
LEEALYEYQPLQIETYGPTVPELE [H19T]	3.17
LEEALYEYQPLQIETYGPNVPELE [H19N]	2.82
LEEALYEYQPLQIETYGPVVPELE [H19V]	2.21
LEEALYEYQPLQIETYGPWVPELE [H19W]	1.5
LEEALYEYQPLQIETYGPPVPELE [H19P]	2.01

Variant	protein stability index
LEEALYEYQPLQIETYGPQVPELE [H19Q]	2.37
LEEALYEYQPLQIETYGPHEPELE [V20E]	1.94
LEEALYEYQPLQIETYGPHNPELE [V20N]	3.23
LEEALYEYQPLQIETYGPHFPELE [V20F]	2.36
LEEALYEYQPLQIETYGPHYPELE [V20Y]	2.78
LEEALYEYQPLQIETYGPHTPELE [V20T]	2.38
LEEALYEYQPLQIETYGPHCPELE [V20C]	2.15
LEEALYEYQPLQIETYGPHKPELE [V20K]	3.23
LEEALYEYQPLQIETYGPHQPELE [V20Q]	2.92
LEEALYEYQPLQIETYGPHPPELE [V20P]	2.21
LEEALYEYQPLQIETYGPHGPELE [V20G]	3.45
LEEALYEYQPLQIETYGPHWPELE [V20W]	2.17
LEEALYEYQPLQIETYGPHDPELE [V20D]	2.36
LEEALYEYQPLQIETYGPHMPELE [V20M]	2.57
LEEALYEYQPLQIETYGPHSPELE [V20S]	2.57
LEEALYEYQPLQIETYGPHLPELE [V20L]	2.49
LEEALYEYQPLQIETYGPHAPELE [V20A]	3.26
LEEALYEYQPLQIETYGPHRPELE [V20R]	2.58
LEEALYEYQPLQIETYGPHHPELE [V20H]	2.1
LEEALYEYQPLQIETYGPHIPELE [V20I]	2.4

Reference: the supplement of paper PMC10567573
